Measurements: PMC9482650, “Quantitative fragmentomics allow affinity mapping of interactomes” (Nature Communications, 2022)

T1: APBA1_1, Q02410
T1 sequence (Q02410 651-752, limits assumed, looked up): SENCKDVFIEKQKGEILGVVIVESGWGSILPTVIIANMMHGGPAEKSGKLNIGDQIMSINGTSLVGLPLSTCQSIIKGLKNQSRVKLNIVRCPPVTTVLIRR

T2: MPP6, Q9NZW5
T2 sequence (Q9NZW5 125-219, limits assumed, looked up): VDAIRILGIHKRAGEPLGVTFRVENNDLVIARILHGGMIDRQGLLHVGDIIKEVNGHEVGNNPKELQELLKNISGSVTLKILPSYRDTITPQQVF

T3: GRIP1_4, Q9Y3R0
T3 sequence (Q9Y3R0 467-571, limits assumed, looked up): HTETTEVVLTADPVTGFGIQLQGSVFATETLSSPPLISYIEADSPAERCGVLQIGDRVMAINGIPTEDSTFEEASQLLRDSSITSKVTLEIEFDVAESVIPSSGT

T4: RAPGEF6, Q8TEU7
T4 sequence (Q8TEU7 525-625, limits assumed, looked up): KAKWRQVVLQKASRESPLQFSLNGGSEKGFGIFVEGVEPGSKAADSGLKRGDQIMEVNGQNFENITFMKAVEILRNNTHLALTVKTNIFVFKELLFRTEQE

T5: DLG3_3, Q92796
T5 sequence (Q92796 374-475, limits assumed, looked up): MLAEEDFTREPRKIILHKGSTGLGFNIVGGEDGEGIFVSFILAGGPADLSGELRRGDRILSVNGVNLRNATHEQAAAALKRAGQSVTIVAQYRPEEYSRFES

T6: SNTG1, Q9NSN8
T6 sequence (Q9NSN8 52-150, limits assumed, looked up): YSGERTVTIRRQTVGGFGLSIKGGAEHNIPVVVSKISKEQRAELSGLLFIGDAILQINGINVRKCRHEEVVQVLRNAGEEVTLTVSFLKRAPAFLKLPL

T7: MPP7, Q5T2T1
T7 sequence (Q5T2T1 134-230, limits assumed, looked up): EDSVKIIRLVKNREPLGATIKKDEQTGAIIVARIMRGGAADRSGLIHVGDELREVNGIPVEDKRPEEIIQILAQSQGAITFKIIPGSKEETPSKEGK

T8: LIN7A, O14910
T8 sequence (O14910 103-200, limits assumed, looked up): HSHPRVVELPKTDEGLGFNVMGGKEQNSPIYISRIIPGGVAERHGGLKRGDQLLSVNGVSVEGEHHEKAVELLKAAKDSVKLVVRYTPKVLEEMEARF


How the values were obtained:
Assay in all cases: holdup assay
Parameters in all cases: key: below the threshold = too weak to quantify, mostly under pKd 3.1 to 4
Conditions in all cases: plain residues with an end cap or a label only (N-terminal biotin on a linker: ado-ado)
APBA1_1, Q02410 = molecular target: T1, APBA1_1, Q02410
Inadl_9, Q8NI35 = molecular target: Inadl_9, Q8NI35
Sequence of Inadl_9, Q8NI35 (Q8NI35 1530-1615): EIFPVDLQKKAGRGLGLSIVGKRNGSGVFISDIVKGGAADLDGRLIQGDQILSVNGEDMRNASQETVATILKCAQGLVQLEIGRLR

PDZRN4_1, Q6ZMN7 = molecular target: PDZRN4_1, Q6ZMN7
Sequence of PDZRN4_1, Q6ZMN7 (Q6ZMN7 213-318): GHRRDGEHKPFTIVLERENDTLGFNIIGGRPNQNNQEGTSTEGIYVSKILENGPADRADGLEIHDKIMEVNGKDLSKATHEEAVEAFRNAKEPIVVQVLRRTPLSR

MPP6, Q9NZW5 = molecular target: T2, MPP6, Q9NZW5
MAGI1_2, Q96QZ7 = molecular target: MAGI1_2, Q96QZ7
Sequence of MAGI1_2, Q96QZ7 (Q96QZ7 456-580): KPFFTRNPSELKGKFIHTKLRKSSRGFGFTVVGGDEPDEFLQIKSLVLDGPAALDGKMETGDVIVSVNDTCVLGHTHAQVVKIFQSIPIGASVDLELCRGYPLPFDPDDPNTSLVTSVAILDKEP

GRIP1_4, Q9Y3R0 = molecular target: T3, GRIP1_4, Q9Y3R0
RAPGEF6, Q8TEU7 = molecular target: T4, RAPGEF6, Q8TEU7
FRMPD2_1, Q68DX3 = molecular target: FRMPD2_1, Q68DX3
Sequence of FRMPD2_1, Q68DX3 (Q68DX3 770-861): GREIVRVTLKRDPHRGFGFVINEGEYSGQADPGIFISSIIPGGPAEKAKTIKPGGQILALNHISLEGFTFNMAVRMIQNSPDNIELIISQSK

CASK, O14936 = molecular target: CASK, O14936
Sequence of CASK, O14936 (O14936 487-570): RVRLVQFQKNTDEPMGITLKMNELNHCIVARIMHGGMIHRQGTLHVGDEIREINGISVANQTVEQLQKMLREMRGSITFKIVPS

GRIP2_6, Q9C0E4 = molecular target: GRIP2_6, Q9C0E4
Sequence of GRIP2_6, Q9C0E4 (Q9C0E4 648-740): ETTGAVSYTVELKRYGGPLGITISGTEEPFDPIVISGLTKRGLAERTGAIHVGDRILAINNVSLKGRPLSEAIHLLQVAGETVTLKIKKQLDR

IL16_3, Q14005 = molecular target: IL16_3, Q14005
Sequence of IL16_3, Q14005 (Q14005 1107-1207): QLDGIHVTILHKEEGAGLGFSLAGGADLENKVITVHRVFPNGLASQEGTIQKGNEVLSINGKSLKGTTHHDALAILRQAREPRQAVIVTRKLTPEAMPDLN

IL16_4, Q14005 = molecular target: IL16_4, Q14005
Sequence of IL16_4, Q14005 (Q14005 1229-1329): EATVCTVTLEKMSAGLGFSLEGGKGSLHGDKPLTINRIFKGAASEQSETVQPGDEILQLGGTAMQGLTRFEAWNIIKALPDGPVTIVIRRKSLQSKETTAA

DLG3_3, Q92796 = molecular target: T5, DLG3_3, Q92796
SNTG1, Q9NSN8 = molecular target: T6, SNTG1, Q9NSN8
MPP7, Q5T2T1 = molecular target: T7, MPP7, Q5T2T1
LIN7A, O14910 = molecular target: T8, LIN7A, O14910
GRIP2_4, Q9C0E4 = molecular target: GRIP2_4, Q9C0E4
Sequence of GRIP2_4, Q9C0E4 (Q9C0E4 446-548): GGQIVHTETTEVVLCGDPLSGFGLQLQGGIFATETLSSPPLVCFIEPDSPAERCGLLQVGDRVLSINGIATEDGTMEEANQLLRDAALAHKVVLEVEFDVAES

HTRA1, Q92743 = molecular target: HTRA1, Q92743
Sequence of HTRA1, Q92743 (Q92743 360-477): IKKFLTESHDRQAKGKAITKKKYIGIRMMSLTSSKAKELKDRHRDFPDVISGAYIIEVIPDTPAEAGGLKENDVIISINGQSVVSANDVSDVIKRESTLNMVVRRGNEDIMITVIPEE

MAGI1_1, Q96QZ7 = molecular target: MAGI1_1, Q96QZ7
Sequence of MAGI1_1, Q96QZ7 (Q96QZ7 1-106): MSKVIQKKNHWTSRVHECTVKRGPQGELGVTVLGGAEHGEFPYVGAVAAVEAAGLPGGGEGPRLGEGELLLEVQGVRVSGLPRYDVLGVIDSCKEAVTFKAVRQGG

GRIP2_5, Q9C0E4 = molecular target: GRIP2_5, Q9C0E4
Sequence of GRIP2_5, Q9C0E4 (Q9C0E4 544-642): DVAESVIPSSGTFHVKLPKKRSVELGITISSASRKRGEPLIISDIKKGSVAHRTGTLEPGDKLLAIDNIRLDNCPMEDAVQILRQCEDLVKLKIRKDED

LDB3, O75112 = molecular target: LDB3, O75112
Sequence of LDB3, O75112 (O75112 1-94): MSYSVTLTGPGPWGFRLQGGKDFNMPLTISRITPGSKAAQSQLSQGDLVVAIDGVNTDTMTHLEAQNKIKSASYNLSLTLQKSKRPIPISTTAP

LIMK2, P53671 = molecular target: LIMK2, P53671
Sequence of LIMK2, P53671 (P53671 143-248): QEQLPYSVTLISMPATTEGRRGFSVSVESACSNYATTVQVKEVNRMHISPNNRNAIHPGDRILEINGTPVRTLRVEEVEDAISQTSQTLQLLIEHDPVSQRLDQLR

DLG1_3, Q12959 = molecular target: DLG1_3, Q12959
Sequence of DLG1_3, Q12959 (Q12959 457-571): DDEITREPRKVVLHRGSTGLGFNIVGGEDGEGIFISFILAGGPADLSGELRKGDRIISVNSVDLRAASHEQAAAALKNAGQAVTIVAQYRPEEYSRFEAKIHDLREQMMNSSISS

HTRA2, O43464 = molecular target: HTRA2, O43464
Sequence of HTRA2, O43464 (O43464 355-458): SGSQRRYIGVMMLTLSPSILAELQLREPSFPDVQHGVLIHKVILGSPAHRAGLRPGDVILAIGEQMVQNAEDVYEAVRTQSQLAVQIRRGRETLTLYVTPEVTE

LNX1_1, Q8TBB1 = molecular target: LNX1_1, Q8TBB1
Sequence of LNX1_1, Q8TBB1 (Q8TBB1 261-371): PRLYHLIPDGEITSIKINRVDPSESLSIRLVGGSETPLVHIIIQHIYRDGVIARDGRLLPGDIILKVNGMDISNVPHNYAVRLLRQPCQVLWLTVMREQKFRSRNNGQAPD

FRMPD3, Q5JV73 = molecular target: FRMPD3, Q5JV73
Sequence of FRMPD3, Q5JV73 (Q5JV73 12-100): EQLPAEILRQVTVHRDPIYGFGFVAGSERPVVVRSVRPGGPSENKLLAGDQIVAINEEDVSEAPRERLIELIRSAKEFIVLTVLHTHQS

MAST1, Q9Y2H9 = molecular target: MAST1, Q9Y2H9
Sequence of MAST1, Q9Y2H9 (Q9Y2H9 962-1065): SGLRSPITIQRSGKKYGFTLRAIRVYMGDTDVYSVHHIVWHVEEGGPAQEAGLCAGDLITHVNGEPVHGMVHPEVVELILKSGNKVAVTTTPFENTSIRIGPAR

LNX1_3, Q8TBB1 = molecular target: LNX1_3, Q8TBB1
Sequence of LNX1_3, Q8TBB1 (Q8TBB1 500-596): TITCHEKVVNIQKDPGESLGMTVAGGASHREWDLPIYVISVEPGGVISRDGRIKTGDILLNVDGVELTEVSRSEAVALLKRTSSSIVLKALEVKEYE

NHERF4_4, Q86UT5 = molecular target: NHERF4_4, Q86UT5
Sequence of NHERF4_4, Q86UT5 (Q86UT5 464-550): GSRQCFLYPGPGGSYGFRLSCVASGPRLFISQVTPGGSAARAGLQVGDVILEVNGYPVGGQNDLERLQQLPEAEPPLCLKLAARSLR

| pKd (APBA1_1, Q02410) | pKd (Inadl_9, Q8NI35) | pKd (PDZRN4_1, Q6ZMN7) | pKd (MPP6, Q9NZW5) | pKd (MAGI1_2, Q96QZ7) | pKd (GRIP1_4, Q9Y3R0) | pKd (RAPGEF6, Q8TEU7) | pKd (FRMPD2_1, Q68DX3) | pKd (CASK, O14936) | pKd (GRIP2_6, Q9C0E4) | pKd (IL16_3, Q14005) | pKd (IL16_4, Q14005) | pKd (DLG3_3, Q92796) | pKd (SNTG1, Q9NSN8) | pKd (MPP7, Q5T2T1) | pKd (LIN7A, O14910) | pKd (GRIP2_4, Q9C0E4) | pKd (HTRA1, Q92743) | pKd (MAGI1_1, Q96QZ7) | pKd (GRIP2_5, Q9C0E4) | Binder | further results |
| --- | --- | --- | --- | --- | --- | --- | --- | --- | --- | --- | --- | --- | --- | --- | --- | --- | --- | --- | --- | --- | --- |
| below the threshold | below the threshold | below the threshold | below the threshold | below the threshold | below the threshold | below the threshold | below the threshold | below the threshold | below the threshold | below the threshold | below the threshold | below the threshold | below the threshold | below the threshold | below the threshold | below the threshold | below the threshold | below the threshold | 3.5 | PGKKPEDSRV [SLCO2B1, O94956] | pKd (LDB3, O75112): below the threshold; pKd (LIMK2, P53671): below the threshold; pKd (DLG1_3, Q12959): below the threshold; pKd (HTRA2, O43464): below the threshold; pKd (LNX1_1, Q8TBB1): below the threshold; pKd (FRMPD3, Q5JV73): below the threshold; pKd (MAST1, Q9Y2H9): below the threshold; pKd (LNX1_3, Q8TBB1): below the threshold; pKd (NHERF4_4, Q86UT5): below the threshold |
| below the threshold | below the threshold | below the threshold | 3.81 | below the threshold | below the threshold | below the threshold | below the threshold | below the threshold | below the threshold | below the threshold | below the threshold | below the threshold | 4.06 | below the threshold | below the threshold | below the threshold | 4.04 | below the threshold | below the threshold | EPAKETTTNV [SLC2A3, P11169] | pKd (LDB3, O75112): below the threshold; pKd (LIMK2, P53671): below the threshold; pKd (DLG1_3, Q12959): 3.6; pKd (HTRA2, O43464): below the threshold; pKd (LNX1_1, Q8TBB1): below the threshold; pKd (FRMPD3, Q5JV73): below the threshold; pKd (MAST1, Q9Y2H9): 4.46; pKd (LNX1_3, Q8TBB1): below the threshold; pKd (NHERF4_4, Q86UT5): below the threshold |

Second part, the binder before the results:

| Binder | pKd (APBA1_1, Q02410) | pKd (Inadl_9, Q8NI35) | pKd (PDZRN4_1, Q6ZMN7) | pKd (MPP6, Q9NZW5) | pKd (MAGI1_2, Q96QZ7) | pKd (GRIP1_4, Q9Y3R0) | pKd (RAPGEF6, Q8TEU7) | pKd (FRMPD2_1, Q68DX3) | pKd (CASK, O14936) | pKd (GRIP2_6, Q9C0E4) | pKd (IL16_3, Q14005) | pKd (IL16_4, Q14005) | pKd (DLG3_3, Q92796) | pKd (SNTG1, Q9NSN8) | pKd (MPP7, Q5T2T1) | pKd (LIN7A, O14910) | pKd (GRIP2_4, Q9C0E4) | pKd (HTRA1, Q92743) | pKd (MAGI1_1, Q96QZ7) | pKd (GRIP2_5, Q9C0E4) | further results |
| --- | --- | --- | --- | --- | --- | --- | --- | --- | --- | --- | --- | --- | --- | --- | --- | --- | --- | --- | --- | --- | --- |
| TKDKVQETQI [LRRC4, Q9HBW1] | below the threshold | below the threshold | 4.6 | 3.89 | below the threshold | below the threshold | below the threshold | below the threshold | below the threshold | below the threshold | below the threshold | below the threshold | 3.98 | 4.97 | below the threshold | 3.51 | below the threshold | below the threshold | 3.59 | below the threshold | pKd (LDB3, O75112): below the threshold; pKd (LIMK2, P53671): below the threshold; pKd (DLG1_3, Q12959): 4.18; pKd (HTRA2, O43464): below the threshold; pKd (LNX1_1, Q8TBB1): 3.99; pKd (FRMPD3, Q5JV73): below the threshold; pKd (MAST1, Q9Y2H9): 4.28; pKd (LNX1_3, Q8TBB1): below the threshold; pKd (NHERF4_4, Q86UT5): 3.95 |
| MLPANYVEAI [NEB, P20929] | below the threshold | below the threshold | below the threshold | below the threshold | below the threshold | below the threshold | below the threshold | below the threshold | below the threshold | below the threshold | below the threshold | below the threshold | below the threshold | below the threshold | below the threshold | below the threshold | below the threshold | 4.03 | below the threshold | below the threshold | pKd (LDB3, O75112): below the threshold; pKd (LIMK2, P53671): below the threshold; pKd (DLG1_3, Q12959): below the threshold; pKd (HTRA2, O43464): below the threshold; pKd (LNX1_1, Q8TBB1): below the threshold; pKd (FRMPD3, Q5JV73): below the threshold; pKd (MAST1, Q9Y2H9): below the threshold; pKd (LNX1_3, Q8TBB1): below the threshold; pKd (NHERF4_4, Q86UT5): below the threshold |
| ADEMICITTL [CACNA1D, Q01668] | below the threshold | below the threshold | 3.72 | below the threshold | below the threshold | below the threshold | 3.65 | below the threshold | below the threshold | below the threshold | below the threshold | below the threshold | below the threshold | 4.32 | below the threshold | below the threshold | below the threshold | 5.79 | 3.51 | below the threshold | pKd (LDB3, O75112): below the threshold; pKd (LIMK2, P53671): below the threshold; pKd (DLG1_3, Q12959): 3.78; pKd (HTRA2, O43464): 3.83; pKd (LNX1_1, Q8TBB1): 4.48; pKd (FRMPD3, Q5JV73): below the threshold; pKd (MAST1, Q9Y2H9): 5.06; pKd (LNX1_3, Q8TBB1): below the threshold; pKd (NHERF4_4, Q86UT5): 3.73 |
